In patent US8124835B2, “Acyl-coa-dependent diacylglycerol acyltransferas 1 (DGAT1) gene from Tropaeolum majus, protein encoded thereby and uses thereof” (National Research Council of Canada, priority 2006, dated 2012):

What was measured:
DGAT activity = experiment: Substrate preference of recombinant TmDGAT1 expressed in yeast H1246MATα; format: biochemical, Tropaeolum majus
Experimental: FIG. 8. Expression of TmDGAT1 in yeast mutant H1246 MATα. DGAT assays were performed on cell lysates of yeast quadruple mutant (DGAT-, PDAT-, ASAT1^−, ASAT2^−) strain:H1246 MATα transformed with pYES2.1/V5-His-TOPO plasmid only (Control) and TmDGAT1/pYES2.1 in the presence of ^14C-labeled 16:0-, 18:0-, 18:1-, eicosenoyl-(20:1 Δ11) and 22:1 acyl-CoAs and sn-1,2-diolein (18:1 DAG) or sn-1,2-dierucin (22:1 DAG). The enzyme activity is scarcely detected in the yeast strain harboring the empty control vector, and has been subtracted from the enzyme activities detected from the H1246MATα strain expressing the TmDGAT1.
The TmDGAT1 ORF (SEQ. ID. NO: 2) in pYES2.1/V5-His-TOPO plasmid was transformed into a quadruple yeast mutant H1246MATα (Sandager et al, 2002) using the S.c. EasyComp™ transformation Kit (Invitrogen). Yeast cells transformed with pYES2.1/V5-His-TOPO plasmid only were used as a control. Transformants were selected by growth on synthetic complete medium lacking uracil (SC-ura), supplemented with 2% (w/v) glucose. The colonies were transferred into liquid SC-ura with 2% (w/v) glucose and grown at 28° C. overnight. The overnight cultures were diluted to an OD of 0.4 in induction medium (SC-ura+2% Galactose+1% Raffinose), and were induced for 24-36 hours at 28° C. Cells were collected and broken using glass beads. The crude protein concentration in the lysates was normalized using the Biorad assay based on the method of (Bradford, 1976) and assayed for DGAT activity. DGAT assays were conducted at pH 7.4, with shaking at 100 rev/min in a water bath at 30° C. for 60 min. […] The ^14C-labelled TAGs were isolated and counted as described above for insect cell expression.
H1246MATα yeast cells harboring an empty pYES2.1 vector plasmid were used as a control. […] In both cases, the lowest level of TAG was detected when using the saturated 16:0-acyl-CoA. […]

[1] = system: B. napus HEAR breeding line 2026; experiment: Over-expression of TmDGAT1 in B. napus HEAR breeding line 2026; format: in vivo, Brassica napus
Text: FIG. 12. Over expression of the TmDGAT1 in B. napus High erucic acid rapeseed breeding line 2026 (courtesy of Dr. P. B. E. McVetty, University of Manitoba). Effect of transformation of B. napus with the TmDGAT1 cDNA under control of the napin promoter on (A) oil content (as percentage of mature seed dry weight), (B) Total oil/100 seeds, (C) Relative net oil content (with the control average set at 100%). T1 seeds of B. napus plasmid-only control transgenic lines (napin:pSE; black bar) and napin:TmDGAT1 transgenic lines (hatched bars) are shown ±SE.
The final binary vector (napin/DGAT/nos) was verified and electroporated into Agrobacterium tumefaciens cells strain GV3101 containing helper plasmid pMP90 (Koncz and Schell, 1986). Plasmid integrity was verified by DNA sequencing following its re-isolation from A. tumefaciens and transformation into E. coli.
Arabidopsis thaliana (ecotype Columbia) WT and mutant line AS11 (Katavic et al., 1995; Zou et al, 1999) were transformed by a vacuum infiltration method (Clough and Bent, 1998). B. napus HEAR breeding line 2026 (courtesy of Dr. P. B. E. McVetty, University of Manitoba) was transformed utilizing hypocotyl explants and a modified method of DeBlock et al., 1998. Modifications of the hypocotyl explant transformation method were described previously (Zou et al., 1997).
Total lipid extracts (TLEs) were prepared as described above, and lipid class analyses, determination of oil content and composition in all seed lines from WT and the AS11 transgenic plants and in nasturtium seed were performed as described previously (Taylor et al., 1991; 1992 a & b; Zou et al., 1997; Jako et al., 2001). In all cases, the data represent the averages of three to five determinations. Intact-seed transmethylation followed by gas chromatography (GC) analysis provided equally reproducible analyses of Arabidopsis seed oil as reported by Li et al., (2006). […]

[2] = acceptor sn-1,2-diolein or sn-1,2-dierucin

B1: TmDGAT1: Tropaeolum majus acyl-CoA-dependent diacylglycerol acyltransferase 1, 518 amino acids (SEQ ID NO: 3), encoded by ORF SEQ ID NO: 2 (protein, listed as Tropaeolum majus)
chain: MAVAESSQNTTTMSGHGDSDLNNFRRRKPSSSVIEPSSSGFTSTNGVPATGHVAENRDQDRVGAMENATGSVNLIGNGGGVVIGNEEKQVGETDIRFTYRPSFPAHRRVRESPLSSDAIFKQSHAGLFNLCIVVLIAVNSRLIIENLMKYGWLIDTGFWFSSRSLGDWSIFMCCLTLPIFPLAAFIVEKLVQRNHISELVAVLLHVIVSTAAVLYPVIVILTCDSVYMSGVVLMLFGCIMWLKLVSYAHTSSDIRTLAKSGYKGDAHPNSTIVSCSYDVSLKSLAYFMVAPTLCYQPSYPRSSCIRKGWVVRQFVKLIVFIGLMGFIIEQYINPIVRNSKHPLKGDFLYAIERVLKLSVPNLYVWLCMFYSFFHLWLNILAELLRFGDREFYKDWWNAKTVAEYWKMWNMPVHRWMVRHLYFPCLRNGIPKEGAIIIAFLVSGAFHELCIAVPCHVFKLWAFIGIMFQVPLVLITNYLQEKFSNSMVGNMIFWFIFCILGQPMCVLLYYHDLINLKEK
DGAT activity using 20:1-CoA compared to 18:1-CoA (DGAT activity; [2]): about 2 fold
DGAT activity using 22:1-CoA compared to 18:1-CoA (DGAT activity; [2]): ~3 fold
activity with radiolabeled free fatty acids as acyl donors (DGAT activity; data not shown): no activity
oil content increase ([1]; T1 generation compared to average pSE plasmid-only control lines): 3.5-4.5%
increase in oil content on a per 100-seed basis ([1]; T1 seeds): 20 to 30 mg
net overall oil increase ([1]; T1 seeds compared with average of pSE controls): ≤ 15%
